# Assay results from article PMC5123071 (2016).
# Target: biotinylated Apaf-1 CARD-LZ-Avi (UniProt O14727 1-137, biotin on the AviTag (BirA))
# Assay: SPR
# Chain of biotinylated Apaf-1 CARD-LZ-Avi (O14727 other isoform, or with tags, fused parts or gaps): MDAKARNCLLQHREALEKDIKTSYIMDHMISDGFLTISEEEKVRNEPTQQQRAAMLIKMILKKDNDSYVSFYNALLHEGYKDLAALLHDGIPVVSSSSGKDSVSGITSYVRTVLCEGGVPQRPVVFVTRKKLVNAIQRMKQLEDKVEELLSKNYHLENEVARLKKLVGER
binder,measurement,value
processed C9/8 chimera (enzyme) chain 1: MDEADRRLLRRCRLRLVEELQVDQLWDALLSRELFRPHMIEDIQRAGSGSRRDQARQLIIDLETRGSQALPLFISCLEDTGQDMLASFLRTNRQAAKLSKPTLENLTPVVLRPEIRKPEVLRPETPRPVDIGSGGFGSESQTLDKVYQMKSKPRGYCLIINNHNFAKAREKVPKLHSIRDRNGTHLDAGALTTTFEELHFEIKPHDDCTVEQIYEILKIYQLMDHSNMDCFICCILSHGDKGIIYGTDGQEAPIYELTSQFTGLKCPSLAGKPKVFFIQACQGDNYQKGIPVETD chain 2: LSSPQTRYIPDEADFLLGMATVNNCVSYRNPAEGTWYIQSLCQSLRERCPRGDDILTILTEVNYEVSNKDDKKNMGKQMPQPTFTLRKKLVFPSD,Kd,125 nM
